Results as given in IntAct's records for PubMed 15811349.

Tests used:
pick1_mouse Pick1 = pick1_mouse Pick1 (UniProt Q62083)
afad_human AFDN = afad_human AFDN (UniProt P55196)
Chain of UniProt P55196 (P55196 whole entry): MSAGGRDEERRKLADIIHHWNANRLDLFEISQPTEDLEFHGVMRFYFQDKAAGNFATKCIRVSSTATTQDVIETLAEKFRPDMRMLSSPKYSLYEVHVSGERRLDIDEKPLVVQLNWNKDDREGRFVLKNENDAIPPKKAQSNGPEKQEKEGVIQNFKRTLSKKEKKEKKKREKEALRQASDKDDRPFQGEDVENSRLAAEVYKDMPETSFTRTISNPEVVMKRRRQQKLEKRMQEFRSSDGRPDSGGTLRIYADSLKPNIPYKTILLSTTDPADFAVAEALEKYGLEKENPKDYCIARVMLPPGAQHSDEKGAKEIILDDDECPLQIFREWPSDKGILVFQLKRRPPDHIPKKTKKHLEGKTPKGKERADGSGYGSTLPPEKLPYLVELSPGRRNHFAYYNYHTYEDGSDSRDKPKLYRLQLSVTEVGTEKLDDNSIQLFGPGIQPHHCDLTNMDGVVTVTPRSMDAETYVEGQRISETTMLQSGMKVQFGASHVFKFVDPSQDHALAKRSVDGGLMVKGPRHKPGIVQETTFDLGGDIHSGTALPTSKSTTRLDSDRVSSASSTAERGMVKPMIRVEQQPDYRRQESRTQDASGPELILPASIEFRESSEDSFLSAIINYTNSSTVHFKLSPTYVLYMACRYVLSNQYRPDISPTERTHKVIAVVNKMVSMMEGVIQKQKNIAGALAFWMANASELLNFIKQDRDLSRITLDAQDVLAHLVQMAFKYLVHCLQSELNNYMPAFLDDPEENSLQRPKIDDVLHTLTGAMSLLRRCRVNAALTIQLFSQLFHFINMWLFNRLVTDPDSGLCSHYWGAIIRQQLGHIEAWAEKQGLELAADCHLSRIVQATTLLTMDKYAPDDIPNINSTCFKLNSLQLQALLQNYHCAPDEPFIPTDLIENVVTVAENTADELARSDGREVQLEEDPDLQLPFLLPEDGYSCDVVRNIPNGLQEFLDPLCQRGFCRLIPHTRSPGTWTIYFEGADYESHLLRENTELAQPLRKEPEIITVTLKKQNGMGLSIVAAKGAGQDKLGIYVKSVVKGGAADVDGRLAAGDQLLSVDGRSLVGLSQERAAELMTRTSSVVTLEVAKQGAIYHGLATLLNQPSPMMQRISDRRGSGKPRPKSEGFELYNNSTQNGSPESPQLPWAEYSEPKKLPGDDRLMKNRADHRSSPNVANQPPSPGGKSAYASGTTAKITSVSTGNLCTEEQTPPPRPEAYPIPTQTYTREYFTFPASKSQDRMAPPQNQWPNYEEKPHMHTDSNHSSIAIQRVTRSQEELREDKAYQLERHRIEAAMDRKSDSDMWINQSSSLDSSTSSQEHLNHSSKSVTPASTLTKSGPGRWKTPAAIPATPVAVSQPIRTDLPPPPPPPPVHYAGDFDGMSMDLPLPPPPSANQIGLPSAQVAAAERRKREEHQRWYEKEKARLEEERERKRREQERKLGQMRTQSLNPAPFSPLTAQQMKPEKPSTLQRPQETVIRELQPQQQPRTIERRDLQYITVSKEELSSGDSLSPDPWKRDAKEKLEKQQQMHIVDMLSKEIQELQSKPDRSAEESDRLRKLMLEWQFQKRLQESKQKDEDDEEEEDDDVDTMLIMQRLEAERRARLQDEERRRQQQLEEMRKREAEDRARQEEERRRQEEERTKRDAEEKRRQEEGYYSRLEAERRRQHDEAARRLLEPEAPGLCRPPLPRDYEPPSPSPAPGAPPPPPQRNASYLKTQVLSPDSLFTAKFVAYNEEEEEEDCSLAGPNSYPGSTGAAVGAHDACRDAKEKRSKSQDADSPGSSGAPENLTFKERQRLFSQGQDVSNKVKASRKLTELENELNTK

Chain of UniProt Q62083 (Q62083 whole entry): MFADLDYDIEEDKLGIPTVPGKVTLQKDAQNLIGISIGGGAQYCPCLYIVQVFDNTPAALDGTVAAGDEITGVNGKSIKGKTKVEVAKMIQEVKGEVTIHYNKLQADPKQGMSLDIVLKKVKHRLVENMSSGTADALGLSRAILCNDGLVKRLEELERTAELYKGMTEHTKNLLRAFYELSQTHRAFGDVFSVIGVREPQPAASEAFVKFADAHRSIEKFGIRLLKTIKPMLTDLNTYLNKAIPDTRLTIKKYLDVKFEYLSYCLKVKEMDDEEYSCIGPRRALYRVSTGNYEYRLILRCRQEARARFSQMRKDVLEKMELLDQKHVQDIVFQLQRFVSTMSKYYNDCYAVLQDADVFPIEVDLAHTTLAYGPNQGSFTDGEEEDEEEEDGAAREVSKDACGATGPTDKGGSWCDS

effect of a mutation on the interaction (pick1_mouse Pick1) | effect of a mutation on the interaction (afad_human AFDN) | Substance
disrupting interaction | – | Nectin-3 (Homo sapiens) (from UniProt Q9NQS3) E546G
decreasing interaction | disrupting interaction | Nectin-3 (Homo sapiens) (from UniProt Q9NQS3) V549A
– | disrupting interaction | Nectin-3 (Homo sapiens) (from UniProt Q9NQS3) Y548A
